According to the DeepSol protein solubility set:

Experiment: soluble on expression in E. coli; label from the status in PepcDB or PDB records

| Sequence | soluble on expression in E. coli |
| --- | --- |
| MSLNKKLYIGMVGILSLMMVGCNKSLAKVNDVEITKEQYKKTKAVLSATNNYINGQSLDELEKTLDKKGRNKLENVIISFMVDNELLYQEAKDKGLTPSKSEVDSKYQELEDKMNLNTSYKEKMDKAGVDKDYLKQEISRDLAIDKNKKAFEDRINISDNDMEAYYTSHKKDFNVEEVSASQILISTLDKNKKEVSKDKKEALKKKADNILTKIKNGESFESLAKKYSDDKATGKNGGQLGYFTKDDKNAEFTKEVFKLKKNEVSNVFETSYGYHIVKVTDKRERQKSFNECQSLIRESILNEKYIEHIKKLNEDAKIDREGHHHHHH | soluble |
| MCQSNQIVSHFLSHRNVTNELAEKISKDHYSYKPAETSMSAEELVKHILTSFHLFANVIKEGNASPFQNKQEETETDLNVLAKTYTEKTVAILEQLTEEQLDREIDLTSAFGRKVTGRALLQLAMEHEIHHKGNLFVYVREMGHTELPFYQQRMLEHHHHHH | soluble |
| MSLKITWLGHAAFLLEGSMKVLIDPFLTGNPNAPVKPEEVKADYILVTHGHGDHLGDAVEIAKRNNAPIICIHELSRILSRYDVETMGMNMGGTARTGSIAVTMVPAWHSADLEDEQGNIISAGLPAGFIVSMDGVRVYHTGDTDVFLDMQLIGELHRPDVMLLPIGDYYTMGIAGAVKALELVKPKVAIPMHYNTFPLVEKDPEDFRKAVKAKGLDVEVVILKPGESYEFNKEGGSHHHHHH | soluble |
| MSLAVLDSGGGSALLKMGRQCEVGSQAYDSSTVSSNLQKAETNGPVGLAGTAEQEQQYDVHGNVISAAVYQKFHVYGPEDMVFDGDAGGLTIPGAGAFWGTLFTSDLQRLYKDTVSFQYNALGTYLNINFFDSSGGFLGHIQAGAVSAVVGVGGGSGSWHNWEVAEGHHHHHH | soluble |
| MGKNKTAYVCQECGYKSVKWLGKCPSCGEWNTLVEEFEPQSFSLVKKEPSLVLPVTDWEKEEHERETTGFESLDNALGGGLVKGQVILIAGEPGIGKSTLLLQISDRVANGKKVLYVSGEESGTQIALRAKRLGINNENLLVYPEVNLEKILQTLEKEKPSLLVLDSVQTIFSERLESSAGSVSQVREVTYRITEFCKEKNVPAFIVGQITKEGSIAGPKVLEHIVDTVLQFEGERFNFYRIVKVIKNRFGSTGEIAVFKMTDKGLEEVPEPSAFFISEKANAPGSVVFPHTEGSKPVLLEVQALVIPALYTTPQRRTQGFDPNRLALILAVLEKEAKIFTRDQDVFVNVAGGMSVKEPAADLAVAMAVVSSKKEKEVPKDFVIFGEVGLSGEIRAVHFGDLRLKEAKRFGFKKALIPKSLEIEIDGMEIYPVSHIQEAIEVLF | soluble |
| MDEVDVALIGAGIMSATLGAMLRTLEPGWTQVMFERLDAPAQESSSPWNNAGTGHSALCELNYTPEVKGRVQIDKALGVNEKFQISRQFWSYQVNEGVLPSPREWINPVPHVSFGRGEDQVAYLKKRYEALAAHPLFPNMQYTDDRAKFAEMLPLMADGRSEFEKVAISWTDAGTDINYGSQTRQFLKAAEKNGTEIRYGHEVKDIKRDGAKWRVTVKNVHTGDTQVIRANFVFVGAGGMALPLLQKTGLEHHHHHH | soluble |
| GSEAWMNFYLEEFNLSIPDSGPYGITSSEDGKVWFTQHKANKISSLDQSGRIKEFEVPTPDAKVMCLIVSSLGDIWFTENGANKIGKLSKKGGFTEYPLPQPDSGPYGITEGLNGDIWFTQLNGDRIGKLTADGTIYEYDLPNKGSYPAFITLGSDNALWFTENQNNSIGRITNTGKLEEYPLPTNAAAPVGITSGNDGALWFVEIMGNKIGRITTTGEISEYDIPTPNARPHAITAGKNSEIWFTEWGANQIGRITNDNTIQEYQLQTENAEPHGITFGKDGSVWFALKCKIGKLNLNE | soluble |
| TLANNRVRLLVNGEASFEAMFKAISAARQVILVQFFIVRDDALGQRLQQLLLERAANGVEVFFLYDAIGSHALPHRYVERLRQGGVQMHGFSTGSGMLNRFQVNFRNHRKVVVVDGECGFVGGHNVGVEYLGEKPPLAPWRDTHMELRGPAVACLQESFAEDWYWATHSLPPLILPPQYDSEGALCQVVASGPA | not soluble |
| MRYSFVIQWDFETVYTGVNSTTNLAFSVKAMTTNFANLQELQDSLVLRGQNLTTQLFWKPTVKRLVLGNNNDLTTVAKAAVGDNLFTTQANLTKSVLDQTVLKEAESRFEATVLKPFIEARQKALAEHQAHQKVLEEQRQKQLEELKQKQKEAE | soluble |
| MGHHHHHHSHMRLPSKPYSTLPIFSLGPSALQRGESSMRSEKPSTAHHRPLRSIARFSSKSKSMDKSDEELQFPKELMEDWSTMEVCVDCKKFISEIISSSRRSLVLANKRARLKRKTQSFYMSSPGPSEYCPSERTISEI | not soluble |
| VRAPGVRAADGAGRVVLYLHGGAFVMCGPNSHSRIVNALSGFAESPVLIVDYRLIPKHSLGMALDDCHDAYQWLRARGYRPEQIVLAGDSAGGYLALALAQRLQCDDEKPAAIVAISPLLQLAKGPKQDHPNIGTDAMFPARAFDALAAWVRAAAAKNMVDGRPEDLYEPLDHIESSLPPTLIHVSGSEVLLHDAQLGAGKLAAAGVCAEVRVWPGQAHLFQLATPLVPEATRSLRQIGQFIRDATADSSLSPVHRSRYVAGSPRAASRGAFGQSPI | not soluble |
| AMAISDPQSSTRNELETGSSSACPKVIYIFARASTEPGNMGISAGPIVADALERIYGANDVWVQGVGGPYLADLASNFLPDGTSSAAINEARRLFTLANTKCPNAAIVSGGYSQGTAVMAGSISGLSTTIKNQIKGVVLFGYTKNLQNLGRIPNFETSKTEVYCDIADAVCYGTLFILPAHFLYQTDAAVAAPRFLQARIG | soluble |
| MNEYAPLRLHVPEPTGRPGCQTDFSYLRLNDAGQARKPPVDVDAADTADLSYSLVRVLDEQGDAQGPWAEDIDPQILRQGMRAMLKTRIFDSRMVVAQRQKKMSFYMQSLGEEAIGSGQALALNRTDMCFPTYRQQSILMARDVSLVEMICQLLSNERDPLKGRQLPIMYSVREAGFFTISGNLATQFVQAVGWAMASAIKGDTKIASAWIGDGATAESDFHTALTFAHVYRAPVILNVVNNQWAISTFQAIAGGESTTFAGRGVGCGIASLRVDGNDFVAVYAASRWAAERARRGLGPSLIEWVTYRAGPHSTSDDPSKYRPADDWSHFPLGDPIARLKQHLIKIGHWSEEEHQATTAEFEAAVIAAQKEAEQYGTLANGHIPSAASMFEDVYKEMPDHLRRQRQELGV | soluble |
| ATGTCGTTGGCAAAAGCGTCCTTGTGGACGGCGGCCAGTACACTGGTCAAGATTGGTGCCGGGTTACTGGTCGGTAAGTTGCTGGCGGTGTCATTTGGTCCGGCGGGGCTTGGGCTGGCGGCAAATTTCCGCCAGTTGATTACCGTGCTCGGCGTGCTTGCCGGGGCTGGCATCTTTAACGGTGTAACCAAATACGTTGCCCAGTACCATGATAATCCGCAACAGCTGCGCCGCGTGGTCGGCACTTCATCAGCGATGGTACTTGGTTTCTCTACGCTGATGGCGCTGGTTTTTGTGCTGGCAGCTGCGCCAATCAGCCAGGGATTGTTTGGTAATACCGACTATCAGGGGCTGGTGCGTTTAGTGGCGCTGGTGCAAATGGGGATCGCCTGGGGCAACCTGTTACTGGCGCTGATGAAAGGCTTTCGSGATGCCGCAGGTAATGCGTTATCGCTGATTGTCGGCAGCTTGATTGGCGTTCTCGCGTACTACGTCAGTTACCGTTTGGGCGGTTATGAAGGGGCGTTGCTGGGTCTGGCGCTGATTCCCGCGCTGGTGGTAATTCCTGCCGCCATCATGTTGATCAAACGTGGTGTCATCCCGTTAAGCTATCTGAAACCCAGCTGGGATAACGGTCTGGCAGGGCAGTTGAGCAAATTTACGCTCATGGCGTTGATTACGTCGGTGACCTTGCCTGTTGCTTACATCATGATGCGTAAACTGCTGGCGGCGCAGTATAGCTGGGATGAGGTGGGGATCTGGCAAGGGGTGAGCAGTATTTCCGATGCCTACCTGCAATTTATTACGGCATCGTTCAGCGTATATTTGCTGCCCACGTTGTCGCGGCTAACGGAAAAGCGCGATATCACCCGGGAAGTGGTTAAATCGCTGAAATTCGTCTTACCGGCAGTGGCGGCGGCGAGTTTTACCGTCTGGCTGCTGCGTGATTTTGCTATCTGGCTGCTGTTGTCGAATAAATTTACCGCTATGCGCGATCTCTTTGCCTGGCAGTTAGTGGGTGATGTGTTAAAAGTGGGCGCTTATGTCTTTGGTTATCTGGTGATCGCCAAAGCGTCACTGCGGTTTTATATTCTGGCGGAAGTCAGCCAGTTCACTTTATTGATGGTATTTGCCCACTGGCTAATCCCTGCGCATGGTGCACTGGGCGCGGCGCAGGCATATATGGCAACTTATATCGTCTATTTTTCTCTTTGTTGTGGCGTGTTTTTACTCTGGCGTAGGCGGGCATGA | not soluble |
